The text below walks through data of publication PMC8622909 (Pharmaceuticals, 2021).

Data set [1] concerns the target T1, UGT1A9 (Homo sapiens, UniProt O60656).
T1 construct: human recombinant UGT1A9
T1 sequence (O60656 26-530): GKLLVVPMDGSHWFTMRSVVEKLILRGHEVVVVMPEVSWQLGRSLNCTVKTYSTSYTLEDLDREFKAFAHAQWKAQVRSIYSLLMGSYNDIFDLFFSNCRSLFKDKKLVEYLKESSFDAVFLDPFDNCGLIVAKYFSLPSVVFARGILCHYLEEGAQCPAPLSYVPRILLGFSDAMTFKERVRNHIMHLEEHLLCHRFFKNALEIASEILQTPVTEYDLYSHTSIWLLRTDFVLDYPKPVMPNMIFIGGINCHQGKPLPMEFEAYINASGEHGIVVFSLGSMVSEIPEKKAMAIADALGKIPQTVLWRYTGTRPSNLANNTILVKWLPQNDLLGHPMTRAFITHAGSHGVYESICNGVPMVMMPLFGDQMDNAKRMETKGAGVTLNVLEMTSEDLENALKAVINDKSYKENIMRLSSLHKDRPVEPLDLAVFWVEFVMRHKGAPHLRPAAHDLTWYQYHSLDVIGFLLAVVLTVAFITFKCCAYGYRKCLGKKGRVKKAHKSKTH
The data set can be described thus: inhibition of PTU glucuronidation by recombinant UGT1A9, HPLC-MS/MS. Particulars: read-out: Magnolol IC50. The format is biochemical.

Substrate in data set [2]: CCCc1cc(=O)[nH]c(=S)[nH]1
The data set can be described thus: purified protein. As to conditions: UDPGA.

As usually defined, the IC50 is the concentration that gives 50% inhibition. `C=CCc1ccc(O)c(-c2cc(CC=C)ccc2O)c1` [magnolol]: in data set [1], the IC50 worked out at 1160 nM.

B1: UGT1A9 (Homo sapiens) (protein)
chain: GKLLVVPMDGSHWFTMRSVVEKLILRGHEVVVVMPEVSWQLGRSLNCTVKTYSTSYTLEDLDREFKAFAHAQWKAQVRSIYSLLMGSYNDIFDLFFSNCRSLFKDKKLVEYLKESSFDAVFLDPFDNCGLIVAKYFSLPSVVFARGILCHYLEEGAQCPAPLSYVPRILLGFSDAMTFKERVRNHIMHLEEHLLCHRFFKNALEIASEILQTPVTEYDLYSHTSIWLLRTDFVLDYPKPVMPNMIFIGGINCHQGKPLPMEFEAYINASGEHGIVVFSLGSMVSEIPEKKAMAIADALGKIPQTVLWRYTGTRPSNLANNTILVKWLPQNDLLGHPMTRAFITHAGSHGVYESICNGVPMVMMPLFGDQMDNAKRMETKGAGVTLNVLEMTSEDLENALKAVINDKSYKENIMRLSSLHKDRPVEPLDLAVFWVEFVMRHKGAPHLRPAAHDLTWYQYHSLDVIGFLLAVVLTVAFITFKCCAYGYRKCLGKKGRVKKAHKSKTH
As a reminder, the Km is the concentration of substrate that gives half-maximal velocity. One may read the Vmax as the top rate of the reaction or transport when substrate is in excess. For the molecule B1, in data set [2], the Michaelis constant (Km) was 15.27 ± 7.73 µM and the Vmax was found to be 0.352 µmol/min/mg.
